The values that follow come from patent publication US20140377284A1 (BIOCEROX PRODUCTS B V, published 2014).

The target of experiment [1] is T1, human fibronectin-derived control peptide (extra type III structural domain) (human).
T1 construct: Synthesized by Pepscan Presto; coated on ELISA plates
T1 peptide: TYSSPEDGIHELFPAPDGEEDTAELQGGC
Nature of the experiment: peptide ELISA. On the procedure:
(§1) After adding 1 M […], optical densities was measured at a wavelength of 450 nm (reference wavelength of 655 nm) using a microplate reader (BioRad).
(§2) Ninety six-wells flat-bottom ELISA plates (Corning) were coated with 10 ng/well human CD134-derived peptide (synthesized by Pepscan Presto, Lelystad, The Netherlands), which corresponded to amino acid sequence of truncated CRD3 A1-module-CRD4 subdomain A1 module (see SEQ ID NO. 38) or with 10 ng/well human fibronectin-derived control peptide (synthesized by Pepscan Presto, Lelystad, The Netherlands), which corresponded to amino acid sequence of extra type III structural domain (see SEQ ID NO. 37) in PBS o/n at 4° C. After extensive washing in PBS/0.05% Tween 20, plates were blocked in PBS/0.05% Tween 20/1% BSA fraction V (Roche) for 1 hour at RT. […] After extensive washing in PBS/0.05% Tween 20, binding of antibodies was determined with 1:5000 diluted horseradish peroxidase-conjugated goat anti-human IgG Fcγ-specific antibodies (Jackson ImmunoResearch) for 1 hour at RT, followed by a ready-to-use solution of TMB substrate (Invitrogen) for colorimetric detection. After adding 1 M H₂SO₄, optical densities was measured at a wavelength of 450 nm (reference wavelength of 655 nm) using a microplate reader (BioRad).
(In general: In an ELISA, binding on a coated surface is turned into a signal by an enzyme label.)

Experiment [2] has as its target T2, truncated human CD134 'truncated (tc) CRD4' construct (human, UniProt P43489 147-277).
T2 construct: also called truncated CRD4
T2 sequence: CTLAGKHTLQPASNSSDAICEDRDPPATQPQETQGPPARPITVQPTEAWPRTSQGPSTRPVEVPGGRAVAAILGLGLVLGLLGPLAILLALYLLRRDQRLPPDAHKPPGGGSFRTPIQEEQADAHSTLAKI
Nature of the experiment: flow cytometry, transiently transfected 293-F cells. On the procedure:
After 48 h, surface human CD134 expression on transfected cells was analyzed by FACS analysis. To this end, transfected cells were harvested and put at 1-2×10⁶ cells/mL in ice-chilled PBS/BSA/NaN₃ supplemented with 50 μg/mL purified human IgG (Sigma; blocking Fey receptors). […] After extensive washing in PBS/BSA/NaN₃, cells were subsequently incubated with 1:200 diluted PE-conjugated goat anti-mouse IgG (Fcγ specific) antibodies (Jackson ImmunoResearch) or with 1:200 diluted PE-conjugated goat anti-human IgG (Fcγ specific) antibodies (Jackson ImmunoResearch) for 30 minutes at 4° C. […] After extensive washing in PBS/BSA/NaN₃, cells were subsequently incubated with 1:200 diluted PE-conjugated goat anti-mouse IgG (Fcγ specific) antibodies (Jackson ImmunoResearch) for 30 minutes at 4° C. After extensive washing in PBS/BSA/NaN₃, cells were fixed in 2% formaldehyde in PBS/BSA/NaN₃ for 30 minutes at 4° C. Binding of antibodies was measured using flow cytometry (FACSCalibur; BD Biosciences).
(In general: Flow cytometry measures light scatter and fluorescence of single cells or particles in a stream.)

Experiment [3] addresses T3, recombinant human CD134:human Fcγ (IgG1) fusion protein (human, UniProt P01857-1 100-330 = IgG part, limits assumed).
T3 construct: domain: Fcγ (IgG1); Bought (R&D Systems); also called rhuCD134
The experiment is described as follows: competition ELISA, plate-bound CD134:Fc; competitor biotinylated mouse 12H3 at 20 ng/mL. On the procedure:
Ninety six-wells flat-bottom ELISA plates (Corning) were coated with 50 ng/well recombinant human CD134:human Fcγ (IgG1) fusion protein (R&D Systems) in PBS o/n at 4° C. After extensive washing in PBS/0.05% Tween 20, plates were blocked in PBS/0.05% Tween 20/1% BSA fraction V (Roche) for 1 hour at RT. […] After adding 1 M H₂SO₄, optical densities were measured at a wavelength of 450 nm (reference wavelength of 655 nm) using a microplate reader (BioRad).

Experiment [4] addresses T4, human CD134 (full-length, on cells) (human, UniProt P43489 29-277).
T4 construct: also called OX40; TNFRSF4
T4 sequence: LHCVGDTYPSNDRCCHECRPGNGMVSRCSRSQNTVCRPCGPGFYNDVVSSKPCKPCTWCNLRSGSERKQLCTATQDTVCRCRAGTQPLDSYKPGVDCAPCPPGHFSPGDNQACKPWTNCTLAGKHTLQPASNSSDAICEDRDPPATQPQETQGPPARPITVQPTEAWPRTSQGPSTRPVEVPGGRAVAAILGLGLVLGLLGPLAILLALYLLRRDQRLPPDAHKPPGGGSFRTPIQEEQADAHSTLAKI
The experiment is described as follows: competition flow cytometry, stable CD134 293-F clone no. 5; competitor biotinylated mouse 12H3 at 700 ng/mL. On the procedure:
Full-length human CD134 (SEQ ID NO1) was re-cloned in a pcDNA3.1-derived expression plasmid (see Example 11 (c) above). […] After extensive washing in PBS/BSA/NaN₃, cells were fixed in 2% formaldehyde in PBS/BSA/NaN₃ for 30 minutes at 4° C.

The target of experiment [5] is T4, human CD134 (full-length, on cells). Nature of the experiment: flow cytometry, stable CD134 293-F clone no. 23. On the procedure:
Full-length human CD134 (SEQ ID NO. 1) was re-cloned in a pcDNA3.1-derived expression plasmid (see Example 11 (d) below). […] After extensive washing in PBS/BSA/NaN₃, cells were subsequently incubated with 1:200 diluted PE-conjugated goat anti-mouse IgG (Fcγ specific) antibodies (Jackson ImmunoResearch) or with 1:200 diluted PE-conjugated goat anti-human IgG (Fcγ specific) antibodies (Jackson ImmunoResearch) for 30 minutes at 4° C. After extensive washing in PBS/BSA/NaN₃, cells were fixed in 2% formaldehyde in PBS/BSA/NaN₃ for 30 minutes at 4° C. Binding of antibodies was measured using flow cytometry (FACSCalibur; BD Biosciences).

Experiment [6] has as its target T3, recombinant human CD134:human Fcγ …. Nature of the experiment: ELISA, plate-bound CD134:Fc, biotinylated antibody detected with streptavidin-HRP.
Experiment [7] has as its target T5, human CD134-derived peptide (truncated CRD3 A1-module-CRD4 subdomain A1-module) (human).
T5 construct: Synthesized by Pepscan Presto; coated on ELISA plates
T5 peptide: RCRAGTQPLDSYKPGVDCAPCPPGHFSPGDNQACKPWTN
The experiment is described as follows: peptide ELISA, 10 ng/well peptide coated. The method, then: as §1, §2

For experiment [8], the target named is T4, human CD134 (full-length, on cells). Nature of the experiment: flow cytometry, PHA-stimulated human CD3+ T lymphocytes.
Experiment [9] has the same target. Nature of the experiment: flow cytometry, stable CD134 293-F clone no. 5, biotinylated antibody detected with streptavidin-PE.

Bounds are passed on as bounds.

B1: mouse anti-human CD134 monoclonal antibody clone 12H3 (antibody, V domains shown)
VH: EVQLQQSGPELVKPGASVKISCKTSGYTFKDYTMHWVKQSHGKSLEWIGGIYPNNGGSTYNQNFKDKATLTVDKSSSTAYMEFRSLTSEDSAVYYCARMGYHGPHLDFDVWGAGTTVTVSP
VL: DIVMTQSHKFMSTSLGDRVSITCKASQDVGAAVAWYQQKPGQSPKLLIYWASTRHTGVPDRFTGGGSGTDFTLTISNVQSEDLTDYFCQQYINYPLTFGGGTKLEIKR
notes: also called m12H3; parental mouse anti-human CD134 antibody clone 12H3
For orientation: IC50 means the concentration at which inhibition is half-maximal. For orientation: EC50 means the concentration that produces a half-maximal response. In the case of B1, the binding result in experiment [1] is recorded as “no binding (tested: 50.0 µg/mL)”; in experiment [2], “no binding (tested: 20.0 µg/mL)”; in experiment [7], “binds”. Also, the IC50 in [3] is approximately 0.75 µg/mL; in experiment [4] it was approximately 3.5 µg/mL. Also, the EC50 in experiment [5] was more than 0.2 µg/mL; in experiment [6], approximately 0.02 µg/mL; in experiment [8] it was approximately 0.5 µg/mL; in experiment [9] it was approximately 0.7 µg/mL.
